Here are results for 15 sequences from a protein production outcome set (Wang et al. 2014).
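Also: failed if final PepcDB status was selected cloned or expressed and not failed if soluble or beyond.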

The series is described as follows: label from the status in PepcDB records.
As to “MTGVIAGPSVLGAVSSGSIESLAELGVILLLFTIGLEMSAERFGEFRRTALIGGTLQICLTVSVVTILTMVLGLSPGKAVFLGFLISLSSTAVVLKVLQDFHETEAPHGQASLAILIFQDVAAVPMILTVPFLGGVVGDPSSALGTLLTAGAVLPWEPCIGKVLVPRLFDVVAATGSREIFLLTVILVCASVTWLTGEVGLSPALGAFLVGSIVANTEYAHRAQGTILPFQEVFLSFFFVSLGMLLDLRFFLDHIYLIVLAVIGVLMIKVVMNSLVGFVMGYSARVVVLLGLVLAQIGEFSFILSETGLRYGLMDRLTFQAFLSVSLITMAITPFLISLSPRISERIVRADLHPRIKNGRVYRRPSVDLRDHLIIIGMGITGRRLADTCEDHGIPYIGLDVNPEAVRRARDEGLNVYYGDGTHLAVLRHFNVPEAAVMVIAIADYRSTVHAIHEARALNEGMKIIARIRGFENTEMLYTAGADVVVSEKREATRRISDEIFSCYSGVCELEE”, the protein production result is recorded as “failed”. Under “MTHCADNGAPLAARQSAARARMSLPVDSPDAATAADSLPPAPAPRPRAPASLVVLATLAVGYTLWAAQTIILPIMLAAFFALIGNPILRGLRKLYIPRFLGALLILCLGLAGTVTLAAQLAGPAAEWVQQAPRQMRQIARDVRDLTKPVMQANQAAENFARAAGGEGQRGVQIVRTQMDDPYKALVRTPKLAASVLAVVLLTFFFMVYGESLQRHAIALLPNRQQQRFTTEIMLDIEREVSRYVLTISVINTLVGLVFAGILYVLQIPLPEAILWGTVVALLNFAPYVGPLIGVMLMLLMGFVEFRTTLSSLLPAILYLALHTIEGQVVTPIVLGRRMAISPLMLILALMLFGWLWGMVGLLLAVPLLVCIKMVLSRVDGMQRWARLLE” stands “failed”; under “MTHEAMSPGEWKAKGGGLTIRYGFHASPFGLALVMITDRGLAGCAFADPGDERACFEDMAGRWPNADYVEDREATAPYAARIFEPAMWTADKPLRVVLEHHHHHH”, “not failed”; under “MTHERGYDLASQVLNICNVHHKKLFCHITYRHLLVLSSDDNGCVILKKVITIADDFLKDEFLDLIAQHAHSLSMHDLGISLIQHVLELDFTKKTTQDDKRLHELMAEFDEVLSTSVTADVDKLHKLASKLMLDSDLFFEFVITRRGSLMIQIILGKSEEVDQVILAGVKQRFIDVTTNFYGYRIMIQTIKVFKKRGDLKVYDQILRLIGVHALYLTKDPDMGNKTFQHAINLHHQDCTTFIACGLQSHYIELSFLKHGSKIVEMLIDDRISMVPLVLLMMEIVKCDEDTLVRLATDEYGNNILKKFLALAKEHKEDFFGDLVDKLNPLLDSLRGTLGENIVAIIDSETEMVKDRIVSQGNN”, “failed”. As to “MTHPFEPFFDKDSKILILGSFPSIKSRQDGFYYQHPRNRFWPILETLFNAKLENITEQQAFLRKKHIALWDVLQSCKIKNSDDKTISYAKANDLNLILSQTKIQAIFTTGQSAYRFFVKFHPRLEAIALPSTSPANLNFSFEQLLQNYEIIKKFTKLEHHHHHH”, the protein production entry is recorded as “failed”. In the case of “MTHPLYIFDLDETLINGDCAMIWNEFLVDKGIVTTPDFLEEDKRLMTLYSRGLMDMEDYLIFAMSPLKNIPTDQVEILIEECVNERILPLLFPEAKILIHQLKADNVDMIVISASVSFLVKIVAKNIGIKHAIGIDLKEKNGCYTRHILGVPSYREGKVSRLTEWLNGGDKTYSALHFYTDSINDLPLCLYADHTYLVNPCEQLAVYSKKKNWPILAWGSQ”, the protein production entry is “failed”.

As to “MTHRPMLNKIKLFFIVQIILSFLVLAGTLISILVIPSHLPDYFIWAIAFSFWVFQCGFSTIFAFRYRISKSSLSTIKLSFILIGSIQILITLATNLFGIFDLPIFNTLIIKNFQFLILSLIFIVMIYKLIKDMLKYRVLKDYIIRDSFFTFIPFAFIIYKNSKYFISSIYFLDDSVYSLALLNINSLRIFLEGFLIILIFVKTIYLRGNKKSSFLLLIYFYVSNLNCYIVSYFNSKLLFSHYLYQGIGIYFICPILLMLSIYHSITEQEKAPDQVLFDDSYMNINNSWISITIGIFPVSFSAIDIISSSIASGDFNGIESLVIILLVMILLVCRDVILRKDNLRLIASVKRANEIDFLTNMYSRNYFLKKLETINTDYALFFIDIKSFKDINNIFGHVVGDKVLVEVANKFKELKLLLGKNVFYCRYSGNEFALISKLDQVDLILKFFRDLENIKIQHNSDLIHINFNIGYSLNDSNINLDLLIQETDYALMRAKKLKGPNNSILMYDDNLKTDLEHMNILKKDFKNDLLTGKFHLVFQPKVCVKTLKIVGFETLLRWKHDKLGEISPSKFVPIAENLGEISSLDLYVFKKSCEFQRCLIDKGIKLKCSVNLSLNTLKSYEKINEILNIYKEYKIPKHLITAEILENVSLNNNAKTISYINLLRENGICISIDDFGTGYSSLSQISNLYFDELKIPREFVIDARTPSKLAVIEAISILAKKLKVTSVIEGVENYEDFKLFSSLGFDIVQGYYFSKPLTKSEIIDYIKVNINNKIS”, the protein production result was “failed”.

Regarding “MTHSQQSMVDTFRASLFDNQDITVADQQIQALPYSTMYLRLNEGQRIFVVLGYIEQEQSKWLSQDNAMLVTHNGRLLKTVKLNNNLLEVTNSGQDPLRNALAIKDGSRWTRDILWSEDNHFRSATLSSTFSFAGLETLNIAGRNVLCNVWQEEVTSTRPEKQWQNTFWVDSATGQVRQSRQMLGAGVIPVEMTFLKPAPLEHHHHHH”, the protein production result was “not failed”. As to “MTHTRRALSTVGKGLAALRHLLPLLLCLLVLAGCAKAPYTGRSQFIMVSPQQEMALGQQESRKILSKEPVKTGTDEAQRVETVGRRIAAAARRGDFRWEFHLIGKDVANAFCLPGGKVFVYEGIFKYADTDAELATVMAHEVGHAIARHGAERMSRAMMVQMGHDAAAIALGVAGGSPAAVQAFSQAYGTGANVGLMLPFGREQEYEADRIGLMLMAQAGYDPRAALDFWRKMSSAPGKRPPEFLSTHPTGQHRIAELQARMGDALRVYRPPSGK”, the protein production result is listed as “failed”. In the case of “MTHVNIMAGGPQACLPAAWEQLPGVWIGVDRGTLRLVRAGIHPELAVGDFDSLTLEELRLVRGHVQKLQQVPSEKDDTDTELAVKAALQASSSGDVTLVGGTGGRLDHFLSNLFLPLQPRFLADVERLHLFDVQNWVDYYSPGEHEIKPLPGYRYVAVVNLTPVADLTIVGAKYPLKPWRAGYPYAWASNEFLGKQPFTVSWTTGQVAIIYSRDRRGQKLDNLEHHHHHH” it was “not failed”; in that of “MTIAATMLRAITVLMALLLLVAAGPAAAADEGGDLLEQFLGRKYEPVLKPLEIPEGTPPSEALFLYLNQGYGDAGVIGDFLAKGADANYADKEYRITLLHNVAHYGHAEATRILLAAGARVNAVNGEGNTPLFAAVHEGHDDVARILLDAGADVTIANSYWYTPLREACRRGNTGMVRLLLEKGADVNITDNKGFTPLHAAVSAEALEAATLILDSGADINIAGRYGDTPLHYAVGLGYEEFVRLFLARGADPTIRNDRGLTPRQLAEERGFASIVELFRNWGKNTI”, “failed”; in that of “MTIACPQCGATAEARTDTRFHGCAFCGSSFMVERGVGIAEYHLDHERDDRVAWSAVASTLERDGAGQAVERTGCEYLVAPFWLSRPESGGNRLVPALRHPWLQGPLPGLPGGDLLFVPSGDDFILPDIPADEALGEGADRGGTSLSLVYLPLYLLSFRLAGHDCRALVSAVDRRVALLTPLPARSESVPFRHAALVAGFAITLTASGLAVKSHFLRAAVFAAVLAVAWPVCTALLRRGE”, “failed”. On to “MTIAILSTGDEIIHGDTLNTNAHYIAHALCSEGLPLGLQVACSDKENEIIDSLNFLTQHHDILILIGGLGPTKDDITRFALAKFTKEPLLQHADALDHIEKKANIAKISLNQGNLQQCLFPANARLFPNPYGTAMGCSYSWKGKVFILLPGPPRECLPMFNQDVLPLLLQTSRHSNK”, for which the protein production result is recorded as “not failed”. For the sequence “MTIHKKGQAHWEGDIKRGKGTVSTESGVLNQQPYGFNTRFEGEKGTNPEELIGAAHAACFSMALSLMLGEAGFTPTSIDTTADVSLDKVDAGFAITKIALKSEVAVPGIDASTFDGIIQKAKAGCPVSQVLKAEITLDYQLKS”, the protein production entry is given as “not failed”.

Regarding “MTIKSLLSDIEREERNVHKAIKDSVKRNDLVTAKALAREIVSSRRTVKRLYENKAQVNSISMHLGESIATAVTVGNLSKSGEVMKLVNSLMKAPEIAVTMQAFSKEMTKTGVIEEFVSDAVDNALDSEDIEEEIEEEVDKVLTAIAGETAAELPEAVRKQKMNVPAQKAETLHGEDAIVEGVDAEEELEAIRYRLANVRS”, the protein production entry is listed as “failed”.
